Reference: paper PMC9835956 (Science (New York, N.y.), 2021)

Assays:
[1] = biological target: SARS-CoV-2 WT NTD with the native signal peptide (SARS-CoV-2, Wuhan-Hu-1 (wild type), UniProt P0DTC2); assay: ELISA; details: both partners purified
[2] = biological target: SARS-CoV-2 S N-terminal domain (NTD), wild type, with the native signal peptide (SARS-CoV-2, Wuhan-Hu-1 (wild type), UniProt P0DTC2); assay: ELISA; details: both partners purified

Binder	binding result [1]	binding result [2]
S2L20 mAb (antibody, V domains shown) VH: EVQLVESGGGVVQPGGSLRLSCAASGFTFNSYGMHWVRQAPGKGLEWVAFIRYDGGNKYYADSVKGRFTISRDNSKNTLYLQMKSLRAEDTAVYYCANLKDSRYSGSYYDYWGQGTLVTVS VL: not shown	binds	–
S2X333 mAb (NTD-specific, neutralizing, antigenic site i) (antibody, V domains shown) VH: VQLVESGGGVVQPGRSLRLSCAASGFTFSNYGMHWVRQAPGKGLEWVAVIWYDGSNKFYADSVKGRFTISRDNSKNSLYLQMNSLRAEDTAVYFCARAFPDSSSWSGFTIDYWGQGTLVTV VL: YELTQPPSVSTARITCGGNNIERKSVHWCQQKPGQAPALVVYDDSDRPSGIPERFSGSNSGNTATLTISRVEAGDEADYYCQVWDSGSDQVIFGGGTKLT	–	binds
